Source: patent US20220387441A1, “TARGETING THE NEUROLIGIN-3 BINDING PARTNER CSPG4 IN GLIOMA” (The Board of Trustees of the Leland Stanford Junior …, priority 2021, published 2022)

Key:
[1] = tested on: CSPG4 shedding from glioma cells (DIPG neurospheres 13pons, 21); experiment: CSPG4 Release Assay (western blot of conditioned medium); assay type: cell-based, human
Excerpt: (§1) Here, we provide evidence that both NLGN3 and CSPG4 ectodomains are in fact cleaved in response to neuronal activity, but that these events are separated in space and time. NLGN3 undergoes ADAM-mediated cleavage in response to glutamate-mediated depolarization, freeing the NLGN3 ectodomain to bind the LNS domains of CSPG4 and induce its subsequent cleavage from the membrane (FIG. 2A). High-grade glioma cells constitutively shed proteins such as CSPG4 and NLGN3 into their culture medium. […] These proteins represent cleaved ectodomains, given their failure to react with a C-terminal CSPG4 antibody (FIG. 2B). We also note that these proteins appear as smears by western blot in large part due to the effects of chondroitin sulfate as treatment of conditioned medium with Chondroitinase ABC collapses these smears into sharp bands (FIG. 2B).
CSPG4 Release Assay: DIPG neurospheres (13pons, 21) were cultured in defined medium (1:1 Neurobasal and DMEM F12, 1× Glutamax, 1× pen/strep, 1×MEM NEAA, 1× sodium pyruvate, 1×HEPES, 1×B-27 (w/o vit A) supplement, heparin, EGF, FGF, PDGF-AA, PDGF-BB) at 37C, 5% CO2. Cells were pelleted at 250G×5 min, medium aspirated, and washed in HBSS w/o calcium and magnesium. […] Dissociated and washed cells were resuspended in HBSS plus Ca+/Mg+ and counted. […]

DIPG13p xenografts = experiment: DIPG13p xenograft survival; assay type: in vivo; conditions: 30 mg/kg oral gavage daily (5 days on/2 days off) until death, DIPG 13p cells in pons of NSG mice
Excerpt: Blockade of CSPG4 RIP via gamma secretase inhibition attenuates glioma growth. Given that CSPG4 is the largest and most structurally complex member of the surfaceome with several validated binding partners and numerous reported functions, we sought to disrupt signaling events downstream of CSPG4 RIP. To that end, we xenografted human glioma cells into pons of immune-deficient mice and treated them with gamma secretase inhibitor to prevent CSPG4 RIP. The treatment of murine OPCs with a gamma secretase inhibitor accelerated their differentiation in vitro as assessed by MBP staining and in line with reports from others.
Treatment was continued daily (5 days on/2 days off) until death with mice receiving 30 mg/kg of gamma secretase inhibitor or matched vehicle by oral gavage.

DIPG6 xenografts = experiment: DIPG6 xenograft survival; assay type: in vivo; conditions: 40 mg/kg IP, 5 days with 2 days of rest, P130 through P158, DIPG6 cells in cortices of NSG mice
Procedure: Dosing of 40 mg/kg was administered via IP injection for 5 days with 2 days of rest in between cycles. Mice were then followed until death.

CTLA4 = target: T1, CTLA4 (Homo sapiens, UniProt P16410); conditions: cited from earlier work
T1 construct: CTLA4 is expressed exclusively on T cells; host or cells: patients' T cells (endogenous)
T1 sequence (P16410 36-223): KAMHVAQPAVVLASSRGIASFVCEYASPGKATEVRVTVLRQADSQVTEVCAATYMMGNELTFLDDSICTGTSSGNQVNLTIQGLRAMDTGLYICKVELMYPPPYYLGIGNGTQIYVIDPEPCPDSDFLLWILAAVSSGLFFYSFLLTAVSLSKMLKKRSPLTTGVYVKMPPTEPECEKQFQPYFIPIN

[2] = tested on: mouse-derived optic pathway glioma cells; experiment: AN2 shedding from mouse-derived optic pathway glioma cells; assay type: cell-based; conditions: mouse-derived optic pathway glioma cells incubated with human sNLGN3
Excerpt: as §1

primary mouse OPCs = experiment: AN2 shedding from primary mouse OPCs; assay type: cell-based; conditions: primary mouse OPCs incubated with human sNLGN3
Excerpt: as §1

CNC(=O)[C@@H](NC(=O)[C@H](CCCc1ccccc1)[C@H](C)N(O)C=O)C(C)(C)C [G1254023X]
shedding of CSPG4 into culture medium (baseline ADAM-mediated cleavage) ([1]; pre-treatment of glioma cells with ADAM10i, 4 uM, 15 minutes): prevents shedding

CC(C)(C(=O)NCC(F)(F)C(F)(F)F)C(=O)N[C@@H]1C(=O)Nc2ccccc2-c2ccccc21 [RO4929097]
mouse survival (DIPG13p xenografts): extends mouse survival

COC(=O)N1CC2(CC2)C[C@H](C(=O)NO)[C@H]1C(=O)N1CC=C(c2ccccc2)CC1 [Aderbasib]
mouse survival (DIPG6 xenografts): extends mouse survival

Tremelimumab: fully humanized CTLA4 antibody
toxicity (CTLA4; 10 mg/kg monthly regimen versus 15 mg/kg every 3 months, randomized clinical trial): doubled
sustained plasma level in patients with the majority of responses (CTLA4; at one month): > 30 µg/mL
dose at which objective responses were evident (CTLA4; single antibody infusion, doses 0.01 mg/kg to 15 mg/kg, patients): ≥ 3 mg/kg

B1: recombinant NLGN3 ectodomains: recombinant human NLGN3 ectodomain, produced in house (protein, UniProt Q9NZ94 38-709, looked up)
extracellular domain: QAPAPTVNTHFGKLRGARVPLPSEILGPVDQYLGVPYAAPPIGEKRFLPPEPPPSWSGIRNATHFPPVCPQNIHTAVPEVMLPVWFTANLDIVATYIQEPNEDCLYLNVYVPTEDVKRISKECARKPNKKICRKGGSGAKKQGEDLADNDGDEDEDIRDSGAKPVMVYIHGGSYMEGTGNMIDGSILASYGNVIVITLNYRVGVLGFLSTGDQAAKGNYGLLDQIQALRWVSENIAFFGGDPRRITVFGSGIGASCVSLLTLSHHSEGLFQRAIIQSGSALSSWAVNYQPVKYTSLLADKVGCNVLDTVDMVDCLRQKSAKELVEQDIQPARYHVAFGPVIDGDVIPDDPEILMEQGEFLNYDIMLGVNQGEGLKFVEGVVDPEDGVSGTDFDYSVSNFVDNLYGYPEGKDTLRETIKFMYTDWADRDNPETRRKTLVALFTDHQWVEPSVVTADLHARYGSPTYFYAFYHHCQSLMKPAWSDAAHGDEVPYVFGVPMVGPTDLFPCNFSKNDVMLSAVVMTYWTNFAKTGDPNKPVPQDTKFIHTKANRFEEVAWSKYNPRDQLYLHIGLKPRVRDHYRATKVAFWKHLVPHLYNLHDMFHYTSTTTKVPPPDTTHSSHITRRPNGKTWSTKRPAISPAYSNENAQGSWNGDQDAGPLLVENPRDYSTELS
modifications: extracellular domain
notes: recombinant human NLGN3 ectodomain, produced in house
ADAM-mediated CSPG4 cleavage ([1]; glioma cells exposed to 100 nM recombinant human NLGN3 ectodomain, 1 hour): augments this ADAM-mediated CSGP4 cleavage
shedding of murine AN2 [2]: augment the shedding of murine AN2
shedding of murine AN2 (primary mouse OPCs): augment the shedding of murine AN2
